Columns and labels:
[1] = target: T1, Human HER3, endogenous, on human cancer cell lines (SK-Br-3, MCF7, BT-474) (human, UniProt P21860 20-1342); assay: cell-based or functional assay
[2] = target: T1, Human HER3, endogenous, on human cancer …; assay: cell-based or functional assay; remark: listed apart in the source
[3] = target: T1, Human HER3, endogenous, on human cancer …; assay: cell-based or functional assay; remark: listed apart in the source
[4] = target: T2, Hu HER3: CD33-[Human HER3, residues 20-640]-TAG (human, UniProt P21860 20-640); assay: SET, IgG vs soluble HER3-Tag
T2 construct: also called hu HER3-Tag; HER3-Tag; not shown: C-terminal TAG (e.g., FLAG TAG)
Protocol: Affinity determination in solution was essentially performed as previously described (Friguet et al., (1985) J Immunol Methods 77:305-19). In order to improve the sensitivity and accuracy of the SET method, it was transferred from classical ELISA to ECL based technology (Haenel et al., (2005) Anal Biochem 339:182-84).
The data was evaluated with XLfit software (ID Business Solutions) applying customized fitting models.
Antibody affinity was determined by solution equilibrium titration (SET) as described above. The results are summarized in Table 3 and example titration curves for MOR12616 and MOR12925 are contained in FIG. 1.

T2 sequence (P21860 20-640): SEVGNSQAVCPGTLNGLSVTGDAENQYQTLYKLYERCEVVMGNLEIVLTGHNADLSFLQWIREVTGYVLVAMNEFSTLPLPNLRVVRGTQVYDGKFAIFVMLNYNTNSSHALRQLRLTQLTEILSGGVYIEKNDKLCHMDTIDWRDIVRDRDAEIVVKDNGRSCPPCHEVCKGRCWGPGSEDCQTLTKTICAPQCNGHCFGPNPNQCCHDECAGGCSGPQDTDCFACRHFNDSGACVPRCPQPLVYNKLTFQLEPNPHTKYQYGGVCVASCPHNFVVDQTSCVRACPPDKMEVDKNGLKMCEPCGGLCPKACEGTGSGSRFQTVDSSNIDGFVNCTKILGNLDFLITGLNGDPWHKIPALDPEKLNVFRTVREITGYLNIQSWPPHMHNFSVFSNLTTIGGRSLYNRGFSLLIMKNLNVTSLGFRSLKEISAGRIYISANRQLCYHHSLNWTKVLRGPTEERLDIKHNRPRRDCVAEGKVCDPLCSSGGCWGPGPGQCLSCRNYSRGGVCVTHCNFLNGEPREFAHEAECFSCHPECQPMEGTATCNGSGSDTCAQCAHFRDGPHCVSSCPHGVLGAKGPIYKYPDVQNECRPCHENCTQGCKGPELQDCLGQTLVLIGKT
T1 sequence (P21860 20-1342): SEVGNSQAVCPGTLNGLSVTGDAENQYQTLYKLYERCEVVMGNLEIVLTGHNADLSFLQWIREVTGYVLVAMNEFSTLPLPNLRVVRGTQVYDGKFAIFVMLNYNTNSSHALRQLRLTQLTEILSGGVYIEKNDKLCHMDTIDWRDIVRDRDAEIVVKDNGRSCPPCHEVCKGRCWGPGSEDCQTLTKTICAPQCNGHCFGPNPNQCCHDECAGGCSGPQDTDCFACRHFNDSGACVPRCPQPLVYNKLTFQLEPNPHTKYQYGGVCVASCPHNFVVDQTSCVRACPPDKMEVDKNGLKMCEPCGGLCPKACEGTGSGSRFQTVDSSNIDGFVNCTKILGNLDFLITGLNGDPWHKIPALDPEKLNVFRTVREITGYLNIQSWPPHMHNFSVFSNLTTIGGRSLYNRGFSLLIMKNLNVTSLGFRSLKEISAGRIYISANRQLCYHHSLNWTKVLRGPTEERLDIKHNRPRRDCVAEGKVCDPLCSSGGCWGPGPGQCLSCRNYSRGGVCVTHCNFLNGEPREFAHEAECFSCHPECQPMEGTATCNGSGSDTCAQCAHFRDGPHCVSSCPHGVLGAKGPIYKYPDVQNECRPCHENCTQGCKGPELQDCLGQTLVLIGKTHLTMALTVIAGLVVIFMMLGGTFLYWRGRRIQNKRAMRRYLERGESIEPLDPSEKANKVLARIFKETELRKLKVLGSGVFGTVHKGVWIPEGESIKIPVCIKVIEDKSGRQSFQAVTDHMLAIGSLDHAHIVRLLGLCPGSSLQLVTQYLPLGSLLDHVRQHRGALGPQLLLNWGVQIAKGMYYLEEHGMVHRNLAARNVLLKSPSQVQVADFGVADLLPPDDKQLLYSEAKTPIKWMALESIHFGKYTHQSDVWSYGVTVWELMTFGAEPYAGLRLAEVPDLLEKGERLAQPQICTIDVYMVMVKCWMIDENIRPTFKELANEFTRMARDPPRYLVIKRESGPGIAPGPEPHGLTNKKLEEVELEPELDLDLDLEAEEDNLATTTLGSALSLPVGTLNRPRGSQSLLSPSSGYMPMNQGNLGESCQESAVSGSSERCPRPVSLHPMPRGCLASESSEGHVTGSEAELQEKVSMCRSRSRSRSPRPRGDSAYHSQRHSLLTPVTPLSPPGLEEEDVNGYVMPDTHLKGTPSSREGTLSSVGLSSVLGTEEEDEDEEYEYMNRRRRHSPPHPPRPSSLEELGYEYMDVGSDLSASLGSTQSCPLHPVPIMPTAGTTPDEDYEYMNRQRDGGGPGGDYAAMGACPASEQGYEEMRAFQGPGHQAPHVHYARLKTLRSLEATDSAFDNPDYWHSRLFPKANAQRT

B1: MOR13752 (antibody, human IgG1, kappa, V domains shown)
VH: QVQLVQSGAEVKKPGESLKISCKGSGYSFTNYWVAWVRQMPGKGLEWMGIIYPGGSDTIYSPSFQGQVTISADKSISTAYLQWSSLKASDTAMYYCARVHIIQPPSAWSYNAMDVWGQGTLVTVSS
VL: DIQMTQSPSSLSASVGDRVTITCRASQSISTYLNWYQQKPGKAPKLLIFGASNLQSGVPSRFSGSGSGTDFTLTISSLQPEDFATYYCQQSITELFTFGQGTKVEIKR
notes: tested as IgG
- BT474 pHER3 % inhibition [1]: 45%
- BT474 pHER3 IC50 [1]: 4240 pM
- SK-Br-3 pHER3 % inhibition [1]: 71%
- SK-Br-3 pHER3 IC50 [1]: 1000 pM
- BT-474 pAkt (S473) % inhibition [2]: 76%
- BT-474 pAkt (S473) IC50 [2]: 39100 pM
- SK-Br-3 pAkt (S473) % inhibition [2]: 86%
- SK-Br-3 pAkt (S473) IC50 [2]: 734 pM
- BT-474 proliferation % inhibition [3]: 22%
- BT-474 proliferation IC50 [3]: 42.8 nM
- SK-Br-3 proliferation % inhibition [3]: 40%
- SK-Br-3 proliferation IC50 [3]: 3 nM
- Kd [4]: 0.096 nM

B2: MOR12924 (antibody, human IgG1, kappa, V domains shown)
VH: QVQLVQSGAEVKKPGESLKISCKGSGYSFTNSWVAWVRQMPGKGLEWMGIIYPGNSDTIYSPSFQGQVTISADKSISTAYLQWSSLKASDTAMYYCARVHIIQPPSAWSYNAMDVWGQGTLVTVSS
VL: DIQMTQSPSSLSASVGDRVTITCRASQSISTYLNWYQQKPGKAPKLLIFGASNLQSGVPSRFSGSGSGTDFTLTISSLQPEDFATYYCQQSVWEPATFGQGTKVEIKR
- BT474 pHER3 % inhibition [1]: 62%
- BT474 pHER3 IC50 [1]: 1590 pM
- MCF7 pHER3 % inhibition [1]: 80%
- MCF7 pHER3 IC50 [1]: 631 pM
- SK-Br-3 pHER3 % inhibition [1]: 76%
- SK-Br-3 pHER3 IC50 [1]: 123 pM
- MCF7 proliferation % inhibition [3]: 23%
- MCF7 proliferation IC50 [3]: 0.497 nM
- SK-Br-3 proliferation % inhibition [3]: 44%
- SK-Br-3 proliferation IC50 [3]: 0.533 nM

B3: MOR12923 (antibody, human IgG1, kappa, V domains shown)
VH: QVQLVQSGAEVKKPGESLKISCKGSGYSFTNSWVAWVRQMPGKGLEWMGIIYPGNSDTIYSPSFQGQVTISADKSISTAYLQWSSLKASDTAMYYCARVHIIQPPSAWSYNAMDVWGQGTLVTVSS
VL: DIQMTQSPSSLSASVGDRVTITCRASQSISTYLNWYQQKPGKAPKLLIFGASNLQSGVPSRFSGSGSGTDFTLTISSLQPEDFATYYCQQSMYLPFTFGQGTKVEIKR
- BT474 pHER3 % inhibition [1]: 61%
- BT474 pHER3 IC50 [1]: 1050 pM
- MCF7 pHER3 % inhibition [1]: 83%
- MCF7 pHER3 IC50 [1]: 540 pM
- SK-Br-3 pHER3 % inhibition [1]: 74%
- SK-Br-3 pHER3 IC50 [1]: 70 pM
- MCF7 proliferation % inhibition [3]: 29%
- MCF7 proliferation IC50 [3]: 0.266 nM
- SK-Br-3 proliferation % inhibition [3]: 42%
- SK-Br-3 proliferation IC50 [3]: 0.062 nM

B4: MOR13755 (antibody, human IgG1, kappa, V domains shown)
VH: QVQLVQSGAEVKKPGESLKISCKGSGYSFTTYWVAWVRQMPGKGLEWMGIIYPGQSDTIYSPSFQGQVTISADKSISTAYLQWSSLKASDTAMYYCARVHIIQPPSAWSYNAMDVWGQGTLVTVSS
VL: DIQMTQSPSSLSASVGDRVTITCRASQSISTYLNWYQQKPGKAPKLLIFGASNLQSGVPSRFSGSGSGTDFTLTISSLQPEDFATYYCQQSITELFTFGQGTKVEIKR
notes: tested as IgG
- BT474 pHER3 % inhibition [1]: 73%
- BT474 pHER3 IC50 [1]: 657 pM
- MCF7 pHER3 % inhibition [1]: 79%
- MCF7 pHER3 IC50 [1]: 331 pM
- SK-Br-3 pHER3 % inhibition [1]: 80%
- SK-Br-3 pHER3 IC50 [1]: 217 pM
- BT-474 pAkt (S473) % inhibition [2]: 79%
- BT-474 pAkt (S473) IC50 [2]: 645 pM
- MCF7 pAkt (S473) % inhibition [2]: 79%
- MCF7 pAkt (S473) IC50 [2]: 468 pM
- SK-Br-3 pAkt (S473) % inhibition [2]: 91%
- SK-Br-3 pAkt (S473) IC50 [2]: 131 pM
- BT-474 proliferation % inhibition [3]: 41%
- BT-474 proliferation IC50 [3]: 0.738 nM
- SK-Br-3 proliferation % inhibition [3]: 52%
- SK-Br-3 proliferation IC50 [3]: 0.207 nM
- Kd [4]: 0.024 nM

B5: MOR13756 (antibody, human IgG1, kappa, V domains shown)
VH: QVQLVQSGAEVKKPGESLKISCKGSGYSFTLTWVAWVRQMPGKGLEWMGIIYPGQSDTIYSPSFQGQVTISADKSISTAYLQWSSLKASDTAMYYCARVHIIQPPSAWSYNAMDVWGQGTLVTVSS
VL: DIQMTQSPSSLSASVGDRVTITCRASQSISTYLNWYQQKPGKAPKLLIFGASNLQSGVPSRFSGSGSGTDFTLTISSLQPEDFATYYCQQSITELFTFGQGTKVEIKR
notes: tested as IgG
- BT474 pHER3 % inhibition [1]: 66%
- BT474 pHER3 IC50 [1]: 322 pM
- SK-Br-3 pHER3 % inhibition [1]: 78%
- SK-Br-3 pHER3 IC50 [1]: 95 pM
- BT-474 pAkt (S473) % inhibition [2]: 86%
- BT-474 pAkt (S473) IC50 [2]: 189 pM
- SK-Br-3 pAkt (S473) % inhibition [2]: 90%
- SK-Br-3 pAkt (S473) IC50 [2]: 107 pM
- BT-474 proliferation % inhibition [3]: 42%
- BT-474 proliferation IC50 [3]: 0.71 nM
- SK-Br-3 proliferation % inhibition [3]: 50%
- SK-Br-3 proliferation IC50 [3]: 0.097 nM
- Kd [4]: 0.025 nM

B6: MOR13750 (antibody, human IgG1, kappa, V domains shown)
VH: QVQLVQSGAEVKKPGESLKISCKGSGYSFTSSWVAWVRQMPGKGLEWMGIIYPGGSDTIYSPSFQGQVTISADKSISTAYLQWSSLKASDTAMYYCARVHIIQPPSAWSYNAMDVWGQGTLVTVSS
VL: DIQMTQSPSSLSASVGDRVTITCRASQSISTYLNWYQQKPGKAPKLLIFGASNLQSGVPSRFSGSGSGTDFTLTISSLQPEDFATYYCQQSITELFTFGQGTKVEIKR
notes: tested as IgG
- BT474 pHER3 % inhibition [1]: 44%
- BT474 pHER3 IC50 [1]: 6680 pM
- SK-Br-3 pHER3 % inhibition [1]: 60%
- SK-Br-3 pHER3 IC50 [1]: 1440 pM
- BT-474 pAkt (S473) % inhibition [2]: 60%
- BT-474 pAkt (S473) IC50 [2]: 17800 pM
- SK-Br-3 pAkt (S473) % inhibition [2]: 83%
- SK-Br-3 pAkt (S473) IC50 [2]: 1640 pM
- BT-474 proliferation % inhibition [3]: 21%
- BT-474 proliferation IC50 [3]: 13.8 nM
- SK-Br-3 proliferation % inhibition [3]: 34%
- SK-Br-3 proliferation IC50 [3]: 5.47 nM
- Kd [4]: 0.16 nM

B7: MOR13754 (antibody, human IgG1, kappa, V domains shown)
VH: QVQLVQSGAEVKKPGESLKISCKGSGYSFTSYWVAWVRQMPGKGLEWMGIIYPGGSDTIYSPSFQGQVTISADKSISTAYLQWSSLKASDTAMYYCARVHIIQPPSAWSYNAMDVWGQGTLVTVSS
VL: DIQMTQSPSSLSASVGDRVTITCRASQSISTYLNWYQQKPGKAPKLLIFGASNLQSGVPSRFSGSGSGTDFTLTISSLQPEDFATYYCQQSITELFTFGQGTKVEIKR
notes: tested as IgG
- BT474 pHER3 % inhibition [1]: 49%
- BT474 pHER3 IC50 [1]: 3900 pM
- SK-Br-3 pHER3 % inhibition [1]: 63%
- SK-Br-3 pHER3 IC50 [1]: 606 pM
- BT-474 pAkt (S473) % inhibition [2]: 64%
- SK-Br-3 pAkt (S473) % inhibition [2]: 84%
- SK-Br-3 pAkt (S473) IC50 [2]: 465 pM
- BT-474 proliferation % inhibition [3]: 17%
- BT-474 proliferation IC50 [3]: 8.01 nM
- SK-Br-3 proliferation % inhibition [3]: 40%
- SK-Br-3 proliferation IC50 [3]: 6.47 nM
- Kd [4]: 0.29 nM

B8: MOR13758 (antibody, human IgG1, kappa, V domains shown)
VH: QVQLVQSGAEVKKPGESLKISCKGSGYSFTLYWVAWVRQMPGKGLEWMGIIYPGQSDTIYSPSFQGQVTISADKSISTAYLQWSSLKASDTAMYYCARVHIIQPPSAWSYNAMDVWGQGTLVTVSS
VL: DIQMTQSPSSLSASVGDRVTITCRASQSISTYLNWYQQKPGKAPKLLIFGASNLQSGVPSRFSGSGSGTDFTLTISSLQPEDFATYYCQQSITELFTFGQGTKVEIKR
notes: tested as IgG
- BT474 pHER3 % inhibition [1]: 67%
- BT474 pHER3 IC50 [1]: 382 pM
- SK-Br-3 pHER3 % inhibition [1]: 77%
- SK-Br-3 pHER3 IC50 [1]: 91 pM
- BT-474 pAkt (S473) % inhibition [2]: 78%
- BT-474 pAkt (S473) IC50 [2]: 371 pM
- SK-Br-3 pAkt (S473) % inhibition [2]: 90%
- SK-Br-3 pAkt (S473) IC50 [2]: 110 pM
- BT-474 proliferation % inhibition [3]: 38%
- BT-474 proliferation IC50 [3]: 0.516 nM
- SK-Br-3 proliferation % inhibition [3]: 47%
- SK-Br-3 proliferation IC50 [3]: 0.133 nM
- Kd [4]: 0.021 nM

Reference: US20130273029A1 (Novartis, published 2013)
